Reference: the supplement of paper PMC7125110
This sample holds only a part of the variants without activity.

B1: glmS ribozyme (parent)
chain: AUAAAAGCGCCAGAACUACAGAAAUGUAGUUGACGAGGAGGAGGUUUAUCGAAUUUUCGGCGGAUGCCUCCAAA

Tests used:
Conditions in all cases: with glucosamine-6-phosphate
glucosamine-6-phosphate [1] = variants of: B1; assay: self-cleavage kobs at 160 uM GlcN6P; higher = faster cleavage; RNA array
Procedure, shortened: (§1)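 Barcoded ribozyme variants were transcribed in situ on sequenced MiSeq chips by E. coli RNA polymerase. At 37 °C, a hybridised Cy3 probe tracked them while glucosamine-6-phosphate (40 μM to 10 mM) in HEPES/KCl/Mg(OAc)2 buffer flowed in and tiles were imaged over ~14 h. Per-tile medians of signals normalised to baseline and to non-cleaving reference variants were fit to one- or two-exponential decays, giving kobs. kcat and KM came from weighted Michaelis–Menten fits across concentrations.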

glucosamine-6-phosphate [2] = variants of: B1; assay: self-cleavage kobs at 640 uM GlcN6P; higher = faster cleavage; RNA array
Procedure, shortened: as §1

glucosamine-6-phosphate [3] = variants of: B1; assay: self-cleavage kobs at 2500 uM GlcN6P; higher = faster cleavage; RNA array
Procedure, shortened: as §1

glucosamine-6-phosphate [4] = variants of: B1; assay: self-cleavage kobs at 10000 uM GlcN6P; higher = faster cleavage; RNA array
Procedure, shortened: as §1

Variant | self-cleavage kobs at 160 uM GlcN6P (glucosamine-6-phosphate [1]) [s⁻¹] | self-cleavage kobs at 640 uM GlcN6P (glucosamine-6-phosphate [2]) [s⁻¹] | self-cleavage kobs at 2500 uM GlcN6P (glucosamine-6-phosphate [3]) [s⁻¹] | self-cleavage kobs at 10000 uM GlcN6P (glucosamine-6-phosphate [4]) [s⁻¹]
AUAAAAGCACCAGAACUACAGAAAUGUAGUUGACGAGGAGGAGGUUUAUCGAAUUUUCGGCGGAUGAGUCCAAA [G9A C67A C68G] | < 1e-05 | < 1e-05 | < 1e-05 | –
AUAAAAGCACCUGAACUACAGAAAUGUAGUUGCCGAGGAGGAGGUUUAUCGAAUUUUCGGCUGAUGCCUCCAAA [G9A A12U A33C G62U] | < 1e-05 | – | – | –
AUAAAAGUGCCAGAACUACAGAAAUGUAGUUUACGAGGAGGAGGUUUAUCGAAUUUUCGGCUGAUGCCUCUAAA [C8U G32U G62U C71U] | < 1e-05 | – | < 1e-05 | –
AUAAAAGUGCCAGAAAUACAGAAAUGUAGUUGACGAGGCGGAGGUCUAUCAAAUUUUCGGCGGAGGCCACCAAA [C8U C16A A39C U46C G51A U65G U69A] | < 1e-05 | – | < 1e-05 | –
AUAAAAGUGCCAGAACUACAGAAAUGUAGUUGACGAGGAGGAGGUUCAUCGAAUUUUCGGCUGAUGCCUCCAAA [C8U U47C G62U] | < 1e-05 | < 1e-05 | – | –
AUAAAAGCACCAGAACUACAGAAAUGUAGUUGACGAGGAGGAGCUUUAUCGAAUUUUCGGCGGAUGCAUCCAAA [G9A G44C C68A] | < 1e-05 | < 1e-05 | < 1e-05 | –
AUAAAAGCCCCGGAACUACAGAAAUGUAGUUGACGAGGAGGAGGUUUAUCGAAUUUUCGGCGGAUGCCUCCAAA [G9C A12G] | < 1e-05 | – | < 1e-05 | < 1e-05
AUAAAAGUGCCAGAACUACAGAAAUGUAGUUGACGAGGAGGAGGUAUAUCGAAUUUUCGGCGGAUGCCUCCAAA [C8U U46A] | < 1e-05 | – | < 1e-05 | < 1e-05
AUAAAAGCACCAGAACUACAGAAAUGUAAUUGACGAGGAGGAGGUUUCUCGAAUUUUUGGCGGAUGCCUCCAAA [G9A G29A A48C C58U] | < 1e-05 | – | – | –
AUAAAAGCACCAGAACUACAGAAAUGUAGUUGACGGGGAGGAGGUUUAUCGAAUUUUCGGCGGCUGCCUCCAAA [G9A A36G A64C] | < 1e-05 | – | < 1e-05 | –
AUAAAAGCACCAGAACUACAGAAAUGUAGCUGACGAGGAGGCGGUUUAUCGAAUUUUCGGCGGAUGCCUUCAAA [G9A U30C A42C C70U] | < 1e-05 | < 1e-05 | – | –
AUAAAAGUGCCAGAACUACAGAAAUGUAGUUGACCAGGAGGAGGUUUAUUUAAUUUUCGGGGGAUGCCUCCAAA [C8U G35C C50U G51U C61G] | < 1e-05 | – | < 1e-05 | –
AUAAAAGCACCAGAACUACAGAAAUGUAGUUGACGAGGAGGAGGUCUAUCGAAUUUUCGGCGCAUGCCUCCAAA [G9A U46C G63C] | < 1e-05 | < 1e-05 | – | –
AUAAAAGUGCCAGAACUACAGAAAUGUAGUUGACGAGGAGGAGGUUUAUCGAAUUUUCGUCGGAUGCUUCCAAA [C8U G60U C68U] | < 1e-05 | < 1e-05 | < 1e-05 | < 1e-05
AUAAAAGCCCCAGAUCUACAGAAAUGUAGUUGACGAGGAGGAUGUUUAUCGAAUUUUCGGCGGAUGCCUCCAAA [G9C A15U G43U] | < 1e-05 | < 1e-05 | < 1e-05 | –
AUAAAAGCACCAGAACUACAGAAAUGUAAUUGACGAGGAGGGGGUUUCUCGAAUUUUCGGCGGAAGCCUCCAAA [G9A G29A A42G A48C U65A] | < 1e-05 | < 1e-05 | < 1e-05 | –
